The values below come from US20070111265A1, “Ligands for mineralocorticoid receptor (MR) and methods for screening for or designing MR ligands” (Van Andel Research Institute, priority 2005, published 2007).

First the molecules themselves.
T1: human MR LBD (residues 727-984) containing a C808S mutation, 6xHis-GST fusion protein (human), P08235
T1 chain: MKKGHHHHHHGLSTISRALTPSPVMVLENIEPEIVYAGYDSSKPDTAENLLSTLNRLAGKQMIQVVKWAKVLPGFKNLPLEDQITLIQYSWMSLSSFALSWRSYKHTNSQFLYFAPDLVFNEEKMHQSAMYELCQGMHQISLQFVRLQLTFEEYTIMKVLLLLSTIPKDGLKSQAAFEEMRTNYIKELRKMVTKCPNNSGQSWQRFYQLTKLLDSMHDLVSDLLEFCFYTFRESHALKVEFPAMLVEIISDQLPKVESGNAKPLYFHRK

This experiment deals with T1, human MR LBD (residues 727-984) …. Kind of experiment: AlphaScreen peptide competition; corticosterone. The settings on record: modification not given. For orientation: In Alpha technology, singlet oxygen from a donor bead excites a nearby acceptor bead.
As a reminder, the IC50 is the concentration needed to halve the response being measured. Lower therefore signals greater potency in that assay. On to TERHKILHRLLQESS [SRC1-2], for which the IC50 was 1400 nM.

Molecule QEKHRILHKLLQNGN [SRC3-2] gave an IC50 of 4600 nM.

SKDHQLLRYLLDKDE [SRC1-3] had an IC50 of 1600 nM.

Consider KEKHKILHRLLQDSS [SRC2-2], for which the IC50 was 2200 nM.

KENNALLRYLLDRDD [SRC3-3] displayed an IC50 of 1400 nM.
